Assay results as given in US20230391872A1 (ANAPTYSBIO, published 2023).

Columns and labels:
[1] = molecular target: T1, human BTLA on cells (stably transfected 293c18 cells; human peripheral blood T and B cells) (human, UniProt Q7Z6A9 31-289); test: flow cytometry, DyLight 650-labeled 6G3 IgG4 on human peripheral blood CD8+ T cells
T1 construct: whole, on cells; the cells are named under assay; also called cell surface BTLA; full-length human BTLA
Experimental: (§1) PBMCs were washed and incubated at 2×10⁷ cells/ml in FACS buffer (PBS, 1% BSA, 0.02% sodium azide) with Human BD Fc Block (2.5 μg/1×10⁶ cells, BD Biosciences) and LIVE/DEAD® Fixable Yellow Dead Cell Stain (30 μl, ThermoFisher Scientific) for 10 minutes on ice. Cells were washed once in FACS buffer, resuspended in FACS buffer at 1×10⁷ cells/ml and the following phenotyping antibodies added: Alexa Fluor 488-anti-human CD3E clone SK7, Brilliant Violet 421-anti-human CD4 clone OKT4, Brilliant Violet 785-anti-human CD8 clone SK1, and Brilliant Violet 570-anti-human CD20 clone 2H7 (50 μl each; all from BioLegend, Inc.). […] Samples were washed twice in FACS buffer, resuspended in 150 μl/well FACS buffer, and analyzed for fluorescence on a NovoCyte Flow Cytometer (ACEA Biosciences, Inc.). Data were analyzed using NovoExpress Software (ACEA Biosciences, Inc.). Median fluorescence intensities of anti-BTLA or isotype staining on gated CD4⁺ T cells (FIG. 4), CD8⁺ T cells (FIG. 4), or CD20⁺ B cells (FIG. 4) were graphed and curves fit with log(agonist) vs. response (three parameters) least squares fit for EC₅₀ calculation in GraphPad Prism (GraphPad Software, Inc.).

[2] = molecular target: T1, human BTLA on cells (stably transfected …); test: flow cytometry (MFI DyL650) on gated CD8+ T cells of human PBMC, DyLight 650-labelled antibody, three-parameter fit [middle panel (Naive CD8+ T cells]
Experimental: as §1, with “Human peripheral blood mononuclear cells (PBMCs) were isolated by Histopaque (Sigma-Aldrich) density-gradient centrifugation of normal donor blood obtained from the San Diego Blood Bank (San Diego, CA). PBMCs” for “PBMCs”

EC50 [1]: ~3.2 nM
EC50 [2]: 3.23 nM
B1: 6G3 IgG4 anti-BTLA antibody (APE10840 / APE12839 / APE13308) (antibody, V domains shown)
VH: QVQLVQSGAEVKKPGSSVKVSCKASGYVFSTSWMNWVRQAPGQGLEWMGRIYPGDADTNYVGKFKGRVTITADKSTTTAYMELSSLRSEDTAVYFCAKSGTFNFGNYRWYFDVWGKGTTVTVSS
VL: AIQLTQSPSSLSASVGDRVTITCRVSENIYSHLAWYQQKPGKAPKLLIYAATNLALGVPSRFSGSGSGTDYTLTISSLQPEDFATYYCQLFWGPPLTFGGGTKVEIKR
notes: Humanized antibody from a mouse hybridoma, tested as human IgG4 (detected with anti-human kappa); Some assays used labelled lots (DyLight 650, AF647, biotin, DyL488); also called 6G3 antibody; APE10840.03
